Binding result and Kd data for five molecules are collected here from PMC4772114, “Structural basis for the regulation of enzymatic activity of Regnase-1 by domain-domain interactions” (Scientific Reports, 2016).

Data set [1] concerns the molecule itself. Kind of data set: crystal structure; PIN-ZF (134-339), sitting drop vapor diffusion at 20 C; form I (P3_121, selenomethionine-labeled) and form II (P3_221, native).
Data set [2] deals with the molecule itself. The data set is described as follows: not stated; Kd of PIN-PIN told in the discussion only; how it was estimated is not told.
Data set [3] deals with the molecule itself. The data set is described as follows: SEC; gel filtration of the PIN domain and its mutants; elution volume compared with standard marker proteins; concentration dependent, 20-200 uM range.
A further data set concerns the target T1, Regnase-1 ZF domain (Mus musculus, UniProt Q5D1E7 299-339).
T1 chain: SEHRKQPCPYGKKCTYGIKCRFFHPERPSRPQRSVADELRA
Kind of data set: NMR titration (1H-15N HSQC, Y314); Zn2+-bound ZF; 100 uM ZF; apparent Kd; EMSA: 20 mM HEPES-NaOH pH 6.8, 150 mM NaCl, 1 mM DTT, 10% glycerol, 0.1% NP-40, 4 C, 30 min; NMR buffer not in material. Particulars: protein: recombinant; tags: GST removed (HRV-3C), 15N-labeled. For orientation: In EMSA bound probe runs differently from free probe, usually more slowly.

Data set [4] has as its target T2, Regnase-1 PIN domain, catalytically inactive monomeric mutant (DDNN and D278R) (Mus musculus, UniProt Q5D1E7 134-295, D226N | D244N | D278R).
T2 construct: Regnase-1 (Zc3h12a), Mus musculus, PIN domain; the discussion gives PIN as residues 134-295; Limits as for m1; Uniformly 15N-labelled or unlabelled in the NMR experiments; not shown: GST, N-terminal, cleaved
T2 sequence (looked up): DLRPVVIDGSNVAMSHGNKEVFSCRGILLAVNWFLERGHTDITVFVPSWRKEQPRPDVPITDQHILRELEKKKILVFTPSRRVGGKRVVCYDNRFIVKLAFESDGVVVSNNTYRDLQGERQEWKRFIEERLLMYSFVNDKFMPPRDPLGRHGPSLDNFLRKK
The data set is described as follows: NMR titration; 1H-15N HSQC of 15N-labeled NTD at 100 uM with unlabeled PIN (DDNN, D278R) added (3 or 6 molar equivalents); 298 K; apparent Kd from the titration curve of L58. Particulars: both partners purified.

B1: Regnase-1 PIN-ZF (residues 134-339) (domain or fragment, Mus musculus, UniProt Q5D1E7 134-339, looked up)
chain: DLRPVVIDGSNVAMSHGNKEVFSCRGILLAVNWFLERGHTDITVFVPSWRKEQPRPDVPITDQHILRELEKKKILVFTPSRRVGGKRVVCYDDRFIVKLAFESDGVVVSNDTYRDLQGERQEWKRFIEERLLMYSFVNDKFMPPDDPLGRHGPSLDNFLRKKPLPSEHRKQPCPYGKKCTYGIKCRFFHPERPSRPQRSVADELRA
modifications: selenomethionine-labeled (form I crystals); native (form II crystals)
notes: Regnase-1 (Zc3h12a), Mus musculus, PIN and ZF domains, residues 134-339; Electron density was observed only for the PIN domain; also called fragment containing both the PIN and ZF domains; not shown: GST, N-terminal, cleaved
On to B1, for which the binding result in data set [1] is on record as “binds”.

B2: Regnase-1 PIN domain, wild type (domain or fragment, Mus musculus, UniProt Q5D1E7 134-295, looked up)
chain: DLRPVVIDGSNVAMSHGNKEVFSCRGILLAVNWFLERGHTDITVFVPSWRKEQPRPDVPITDQHILRELEKKKILVFTPSRRVGGKRVVCYDDRFIVKLAFESDGVVVSNDTYRDLQGERQEWKRFIEERLLMYSFVNDKFMPPDDPLGRHGPSLDNFLRKK
notes: Regnase-1 (Zc3h12a, MCPIP1), Mus musculus, PIN domain; the discussion gives PIN as residues 134-295; The limits 134-295 are told for the PIN domain in the discussion, not expressly for the construct; 15N-labelled for NMR; also called PilT N-terminus like domain; not shown: GST, N-terminal, cleaved
For B2, the Kd in data set [2] was roughly 100 µM.

B3: Regnase-1 PIN domain R215E (domain or fragment, Mus musculus, UniProt Q5D1E7 134-295, looked up)
chain: DLRPVVIDGSNVAMSHGNKEVFSCRGILLAVNWFLERGHTDITVFVPSWRKEQPRPDVPITDQHILRELEKKKILVFTPSREVGGKRVVCYDDRFIVKLAFESDGVVVSNDTYRDLQGERQEWKRFIEERLLMYSFVNDKFMPPDDPLGRHGPSLDNFLRKK
notes: Regnase-1 (Zc3h12a), Mus musculus, PIN domain; the discussion gives PIN as residues 134-295; Limits as for m1; not shown: GST, N-terminal, cleaved
Regarding B3, the binding result in data set [3] is recorded as “binds”.

B4: IL-6 mRNA 3'UTR (82-106) (ssRNA)
RNA: UGUUGUUCUCUACGAAGAACUGACA
As to B4, the Kd with Regnase-1 ZF domain is 10 ± 1.1 µM.

B5: Regnase-1 N-terminal domain (NTD) (domain or fragment, Mus musculus)
chain: TSELQMKVDFFRKLGYSSSEIHSVLQKLGVQADTNTVLGELVKHG
notes: Regnase-1 (Zc3h12a), Mus musculus, N-terminal domain; residues 90-133 are called the connection between the NTD and PIN; Uniformly 15N-labelled or unlabelled in the NMR experiments; not shown: GST, N-terminal, cleaved
As to B5, the Kd in data set [4] is 110 ± 5.8 µM.
